Entries after “also recorded” stand apart in the source; their conditions may differ.
Legend:
[1] = Turnover number of atorvastatin oxidation by CYP102A1 enzymes (HPLC); format: biochemical; settings: 80 μM atorvastatin, FIG. 13; for turnover number in oxidation of atorvastatin: 50 pmol enzyme, NADPH-generating system, 37° C., 30 minutes, production of 4-hydroxylated metabolite by HPLC
Experimental: It was examined whether the wild-type CYP102A1, the CYP102A1 mutants, and the chimeras derived from the CYP1.02A1 mutants may oxidize atorvastatin. Typical steady-state reactions was performed by adding 50 pmol CYP102A1 and 80 μM substrate to 0.25 ml of 100 mM potassium phosphate buffer solution (pH 7.4). In order to initiate reactions, the NADPH-generating system was added thereto (final concentrations: 10 mM glucose 6-phosphate, 0.5 mM NADP^+, and 1 IU […] per ml). A stock solution of atorvastatin (20 mM) was prepared in DMSO and diluted into the enzyme reaction solution to have a final organic solvent concentration of <1% (v/v).
In order to measure human CYP3A4 activity, 50 pmol P450, 100 pmol NADPH-P450 reductase (CPR), 100 pmol cytochrome b5, and 45 μM L-α-dilauroyl-sn-glycero-3-phosphocholine (DLPC) were used instead of 50 pmol CYP102A1. After the reaction solution was reacted for 30 minutes at 37° C., the reaction was terminated with 2-fold of ice-cold dichloromethane.
After centrifugation of the reaction mixture, a supernatant was removed and a solvent was evaporated under nitrogen gas and analyzed using HPLC. A sample (30 ul) was injected into Gemini C18 column (4.6 mm×150 mm, 5 um. Phenomenex. Torrance, Calif.). As a mobile phase A, water containing 0.1% formic acid/acetonitrile (80/20, v/v) was used, and as a mobile phase B, acetonitrile/0.1% formic acid (90/10, v/v) was used. The mobile phase A/B (70/30, v/v) was flowed at a rate of 1 ml·min^−1 using a gradient pump (LC-20AD, Shimadzu, Kyoto, Japan). Elution solutions were detected by UV at 260 nm.
In order to examine whether or not CYP102A1 (P450 BM3) may oxidize atorvastatin, the abilities of the wild-type CYP102A1 (P450 BM3), the mutants thereof, and the chimeras derived from the CYP102A1 mutants to oxidize atorvastatin were measured at a fixed substrate concentration (80 μM).
In order to recognize production rate of atorvastatin oxides by wild-type CYP102A1, CYP102A1 mutants, and chimeras derived from the CYP102A1 mutants, the turnover number was determined in the reaction using 80 μM statin.
The term “turnover number” means the number of substrate molecules that a molecule of an enzyme may convert into products per minute and indicates conversion frequency.
The production rate of 4-hydroxylated metabolite was determined by HPLC as described above.

[2] = Total turnover number (TTN) of atorvastatin oxidation; format: biochemical; settings: reacted for 4 hours
Experimental: In order to recognize production rate of atorvastatin metabolites by the CYP102A1 mutant (#16 in Table 2) and the chimeras (#16A1V2 and #17A1V2) derived from the CYP102A1 mutants, total turnover numbers (TTNs; mol product/mol catalyst) were determined in reactions using total 240 μM atorvastatin.
The term “total turnover number (TTN)” means the number of substrate molecules converted into metabolites by enzymes for the total reaction time.
The total turnover numbers (TTNs) were determined by comparing the results under three conditions. First, the reaction was performed by adding a NADPH-generating system at 37° C. for 1 hour in the presence of 80 μM substrate. In addition, second, after reaction was performed for 1 hour in the presence of 80 μM substrate, 80 μM substrate was additionally added to the reaction mixture, and the reaction was further performed for 1 hour. Finally, after reaction was performed for 1 hour in the presence of 80 μM substrate, 80 μM substrate was additionally added to the reaction mixture, and the reaction was further performed for 1 hour. Then, 80 μM substrate was additionally added to the reaction mixture, and the reaction was further performed for 2 hours.
The production rate of the atorvastatin metabolites was determined using HPLC. […]

Molecule | turnover number in oxidation of atorvastatin [1] | activity compared with human CYP3A4 (total turnover number) [2] | activity compared with human CYP3A4 (turnover number) [1]
Mutant #17: CYP102A1 mutant R47L/E64G/F81I/F87V/E143G/L188Q/E267V (SEQ ID NO 20) (protein, CYP102A1 mutant #17) MTIKEMPQPKTFGELKNLPLLNTDKPVQALMKIADELGEIFKFEAPGLVTRYLSSQRLIKEACDGSRFDKNLSQALKFVRDIAGDGLVTSWTHEKNWKKAHNILLPSFSQQAMKGYHAMMVDIAVQLVQKWERLNADEHIEVPGDMTRLTLDTIGLCGFNYRFNSFYRDQPHPFITSMVRALDEAMNKQQRANPDDPAYDENKRQFQEDIKVMNDLVDKIIADRKASGEQSDDLLTHMLNGKDPETGEPLDDENIRYQIITFLIAGHVTTSGLLSFALYFLVKNPHVLQKAAEEAARVLVDPVPSYKQVKQLKYVGMVLNEALRLWPTAPAFSLYAKEDTVLGGEYPLEKGDELMVLIPQLHRDKTIWGDDVEEFRPERFENPSAIPQHAFKPFGNGQRACIGQQFALHEATLVLGMMLKHFDFEDHTNYELDIKETLTLKPEGFVVKAKSKKIPLGGIPSPSTEQSAKKVRKKVENAHNTPLLVLYGSNMGTAEGTARDLADIAMSKGFAPQVATLDSHAGNLPREGAVLIVTASYNGHPPDNAKQFVDWLDQASADDVKGVRYSVFGCGDKNWATTYQKVPAFIDETLAAKGAENIADRGEADASDDFEGTYEEWREHMWSDVAAYFNLDIENSEDNKSTLSLQFVDSAADMPLAKMHGAFSANVVASKELQQLGSERSTRHLEIALPKEASYQEGDHLGVIPRNYEGIVNRVTARFGLDASQQIRLEAEEEKLAHLPLGKTVSVEELLQYVELQDPVTRTQLRAMAAKTVCPPHKVELEALLEKQAYKEQVLAKRLTMLELLEKYPACEMEFSEFIALLPSISPRYYSISSSPHVDEKQASITVSVVSGEAWSGYGEYKGIASNYLANLQEGDTITCFVSTPQSGFTLPKDSETPLIMVGPGTGVAPFRGFVQARKQLKEQGQSLGEAHLYFGCRSPHEDYLYQEELENAQNEGIITLHTAFSRVPNQPKTYVQHVMERDGKKLIELLDQGAHFYICGDGSQMAPDVEATLMKSYADVYEVSEADARLWLQQLEEKGRYAKDVWAG | high turnover number | – | –
#16A1V2: chimera: heme domain of mutant #16 fused to V2 reductase domain of Table 4 (SEQ ID NO 22) (protein, chimera #16A1V2) MTIKEMPQPKTFGELKNLPLLNTDKPVQALMKIADELGEIFKFEAPGRVTRYLSSQRLIKEACDESRFDKNLSQALKFVRDFAGDGLFTSWTHEKNWKKAHNILLPSFSQQAMKGYHAMMVDIAVQLVQKWERLNADEHIEVPEDMTRLTLDTIGLCGFNYRFNSFYRDQPHPFITSMVRALDEAMNKLQRANPDDPAYDENKRQFQEDIKVMNDLVDKIIADRKASGEQSDDLLTHMLNGKDPETGEPLDDENIRYQIITFLIAGHETTSGLLSFALYFLVKNPHVLQKAAEEAARVLVDPVPSYKQVKQLKYVGMVLNEALRLWPTAPAFSLYAKEDTVLGGEYPLEKGDELMVLIPQLHRDKTIWGDDVEEFRPERFENPSAIPQHAFKPFGNGQRACIGQQFALHEATLVLGMMLKHFDFEDHTNYELDIKETLTLKPEGFVVKAKSKKIPLGGIPSPSTEQSAKKVRKKVENAHNTPLLVLYGSNMGTAEGTARDLADIAMSKGFAPQVATLDSHAGNLPREGAVLIVTASYNGHPPDNAKQFVDWLDQASADDVKGVRYSVFGCGDKNWATTYQKVPAFIDETLAAKGAENIADRGEADASDDFEGTYEEWREHMWSDVAAYFNLDIENSEDNKSTLSLQFVDSAADMPLAKMHGAFSANVVASKELQQLGSERSTRHLEIALPKEASYQEGDHLGVIPRNYEGIVNRVTARFGLDASQQIRLEAEEEKLAHLPLGKTVSVEELLQYVELQDPVTRTQLRAMAAKTVCPPHKVELEALLEKQAYKEQVLAKRLTMLELLEKYPACEMEFSEFIALLPSISPRYYSISSSPHVDEKQASITVSVVSGEAWSGYGEYKGIASNYLANLQEGDTITCFVSTPQSGFTLPKDSETPLIMVGPGTGVAPFRGFVQARKQLKEQGQSLGEAHLYFGCRSPHEDYLYQEELENAQNEGIITLHTAFSRVPNQPKTYVQHVMERDGKKLIELLDQGAHFYICGDGSQMAPDVEATLMKSYADVYEVSEADARLWLQQLEEKGRYAKDVWAG | high turnover number; also recorded: most excellent turnover number | activity higher than that of the human CYP3A4 | same activity as that of the human CYP3A4
Mutant #16: CYP102A1 mutant R47L/F81I/F87V/E143G/L188Q/E267V (SEQ ID NO 18) (protein, CYP102A1 mutant#16) MTIKEMPQPKTFGELKNLPLLNTDKPVQALMKIADELGEIFKFEAPGLVTRYLSSQRLIKEACDESRFDKNLSQALKFVRDIAGDGLVTSWTHEKNWKKAHNILLPSFSQQAMKGYHAMMVDIAVQLVQKWERLNADEHIEVPGDMTRLTLDTIGLCGFNYRFNSFYRDQPHPFITSMVRALDEAMNKQQRANPDDPAYDENKRQFQEDIKVMNDLVDKIIADRKASGEQSDDLLTHMLNGKDPETGEPLDDENIRYQIITFLIAGHVTTSGLLSFALYFLVKNPHVLQKAAEEAARVLVDPVPSYKQVKQLKYVGMVLNEALRLWPTAPAFSLYAKEDTVLGGEYPLEKGDELMVLIPQLHRDKTIWGDDVEEFRPERFENPSAIPQHAFKPFGNGQRACIGQQFALHEATLVLGMMLKHFDFEDHTNYELDIKETLTLKPEGFVVKAKSKKIPLGGIPSPSTEQSAKKVRKKAENAHNTPLLVLYGSNMGTAEGTARDLADIAMSKGFAPQVATLDSHAGNLPREGAVLIVTASYNGHPPDNAKQFVDWLDQASADEVKGVRYSVFGCGDKNWATTYQKVPAFIDETLAAKGAENIADRGEADASDDFEGTYEEWREHMWSDVAAYFNLDIENSEDNKSTLSLQFVDSAADMPLAKMHGAFSTNVVASKELQQPGSARSTRHLEIELPKEASYQEGDHLGVIPRNYEGIVNRVTARFGLDASQQIRLEAEEEKLAHLPLAKTVSVEELLQYVELQDPVTRTQLRAMAAKTVCPPHKVELEALLEKQAYKEQVLAKRLTMLELLEKYPACEMKFSEFIALLPSIRPRYYSISSSPRVDEKQASITVSVVSGEAWSGYGEYKGIASNYLAELQEGDTITCFISTPQSEFTLPKDPETPLIMVGPGTGVAPFRGFVQARKQLKEQGQSLGEAHLYFGCRSPHEDYLYQEELENAQSEGIITLHTAFSRMPNQPKTYVQHVMEQDGKKLIELLDQGAHFYICGDGSQMAPAVEATLMKSYADVHQVSEADARLWLQQLEEKGRYAKDVWAG | high turnover number | – | –

— patent US9127249B2, “Method for preparing metabolites of atorvastatin using bacterial cytochrome P450 and composition therefor” (INDUSTRY FOUNDATION OF CHONNAM NATIONAL UNIVERSITY, priority 2011, dated 2015)
